These results are taken from patent US20190055322A1.

The target of this test is PcrV of P. aeruginosa strain PA103 (on TTSS-induced bacteria) (Pseudomonas aeruginosa strain PA103). In words: cell-based or functional assay.

B1: 4G10-40GS-7C10 (VHH)
chain: EVQLVESGGGLVQAGGSLRLSCVISEDGVRNYDMGWFRQAPGKEREFVATINWSGGSTNYADSVKGRFTVSRDNAKNTMYLQMDSLKPEDTAVYYCVAAGFYNNYLRTAPNDWNDWGQGTQVTVSSGGGGSGGGGSGGGGSGGGGSGGGGSGGGGSGGGGSGGGGSEVQLVESGGGLVQAGGSLRLSCTASGRTLSSYTMGWFRQAPGTEREFVAAMTRSGFNTYYADSVKGRFTISRDSTENTMALQMSSLKPEDTAVYYCTAGRGLTSYRADYWGQGTLVTVSS
For B1, the % inhibition in P3X63 cytotoxicity assay, extract 1/150 was 81%.

B2: Nanobody 234 (7C10-40GS-5H01) (VHH)
chain: EVQLVESGGGLVQAGGSLRLSCTASGRTLSSYTMGWFRQAPGTEREFVAAMTRSGFNTYYADSVKGRFTISRDSTENTMALQMSSLKPEDTAVYYCTAGRGLTSYRADYWGQGTLVTVSSGGGGSGGGGSGGGGSGGGGSGGGGSGGGGSGGGGSGGGGSEVQLVESGGGLVQPGGSLRLSCAASGSTLDYYAIGWFRQAPGKEREGVSCTSNSGSTYYGGSVKGRFTASRDNAKNTVYLQMNSLRPEDTAVYYCVATIGCATLGGTLDVQRYYYRGQGTLVTVSS
Take B2: the % inhibition in P3X63 cytotoxicity assay, extract 1/150 worked out at 63%.

B3: 3E10-40GS-2B10 (VHH)
chain: EVQLVESGGGLVQAGGSLRLSCTASGHTFSSYTMGWFRQAPGKEREFVAAMTRSGFNTHYSDSVKGRFTISRDNTSRDNTKITMALQMNSLKPEDTAVYYCTTGRGLTSYVANFWGQGTQVTVSSGGGGSGGGGSGGGGSGGGGSGGGGSGGGGSGGGGSGGGGSEVQLVESGGGLVQPGGSLRLSCAASGSIFSINNMGWYRQAPGKQRELVTVVTSNLITTYADSVKGRFTISRDNAKNTVYLQMNSLKPEDTAVYYCNAWARSVGSVPYSQFWGQGTLVTVSS
B3 showed a % inhibition in P3X63 cytotoxicity assay, extract 1/150 of 52%.

B4: Nanobody 262 (7E09-40GS-7C10) (VHH)
chain: EVQLVESGGGLVQAGGSLRLSCAASGRTFSSYIMGWFRQAPGKAREFVADITWGQRPYYADSVKGRFTISRDNAKNTVYLEMNSLKPEDTAVYYCAADLGVVIREEHAYWGQGTLVTVSSGGGGSGGGGSGGGGSGGGGSGGGGSGGGGSGGGGSGGGGSEVQLVESGGGLVQAGGSLRLSCTASGRTLSSYTMGWFRQAPGTEREFVAAMTRSGFNTYYADSVKGRFTISRDSTENTMALQMSSLKPEDTAVYYCTAGRGLTSYRADYWGQGTLVTVSS
B4 came in with a % inhibition in P3X63 cytotoxicity assay, extract 1/150 of 48%.

B5: 5E02-40GS-1E11 (VHH)
chain: EVQLVESGGGLVQPGGSLRLSCAASGITLDSIAICWFRQAPGKEREGVSCSRGSDGSTYYADSVKGRFTISRVNAKNTVYLQMNSLKPEDTAVYYCAAAPSIFYSGGYFPSGMDYWGKGTQVTVSSGGGGSGGGGSGGGGSGGGGSGGGGSGGGGSGGGGSGGGGSEVQLVESGGGLVQPGGSLRLSCAASGSTRSVNPMAWFRQAPGRQREWVATISRSGYATYADSVKGRFTISGDNAKSSVYLQMNSLKPEDTAVYYCVTGTYWGQGTLVTVSS
As to B5, the % inhibition in P3X63 cytotoxicity assay, extract 1/150 is 60%.

B6: 3E10-40GS-5H01 (VHH)
chain: EVQLVESGGGLVQAGGSLRLSCTASGHTFSSYTMGWFRQAPGKEREFVAAMTRSGFNTHYSDSVKGRFTISRDNTSRDNTKITMALQMNSLKPEDTAVYYCTTGRGLTSYVANFWGQGTQVTVSSGGGGSGGGGSGGGGSGGGGSGGGGSGGGGSGGGGSGGGGSEVQLVESGGGLVQPGGSLRLSCAASGSTLDYYAIGWFRQAPGKEREGVSCTSNSGSTYYGGSVKGRFTASRDNAKNTVYLQMNSLRPEDTAVYYCVATIGCATLGGTLDVQRYYYRGQGTQVTVSS
For B6, the % inhibition in P3X63 cytotoxicity assay, extract 1/150 is 85%.

B7: Nanobody 064 (13F07-40GS-7C10) (VHH)
chain: EVQLVESGGGLVQAGGSLRLSCAASGNTFSTNPMYWYRQAEGKQRELVASISSRGITNYADSVRGRFSISRDNTKDTVYLQMNSLKPEDTAVYYCRLASLSSGTVYWGKGTLVTVSSGGGGSGGGGSGGGGSGGGGSGGGGSGGGGSGGGGSGGGGSEVQLVESGGGLVQAGGSLRLSCTASGRTLSSYTMGWFRQAPGTEREFVAAMTRSGFNTYYADSVKGRFTISRDSTENTMALQMSSLKPEDTAVYYCTAGRGLTSYRADYWGQGTLVTVSS
Turning to B7, the % inhibition in P3X63 cytotoxicity assay, extract 1/150 was found to be 74%.
